Measurements as given in the supplement of paper PMC12764529.
± gives the half width of the 95% confidence interval.

assay: folding stability dG unfold from chymotrypsin proteolysis; higher = more stable
Procedure, shortened: (§1)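 Bayesian fitting of sequencing counts gave K50 for each design. Unfolding free energy followed by setting this against a sequence-predicted unfolded-state K50 and a shared folded-state K50, either per protease or with trypsin and chymotrypsin combined. The designs, under 80 residues and lacking cysteine, were digested in a PA-tagged cDNA display format at 11 threefold-diluted protease concentrations and without protease, and only those with AlphaFold2 dimer inter-PAE above 15 were kept.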

Sequence	folding stability dG unfold
SAGGGMNEKVIEIEVTVTAPDGKVTTNPTTVVSNSLEEVKASIKASIPPNWSITVTVLKTKSLKEVLSSAGG [r13_513_JUSTAS]	0.425 ± 0.081 kcal/mol
SAGGSAGGSKKPKITITIEILVKNEDGKLYLFRIEIEINENGEISIKMEIFELKDIKPGDILLSAGGSAGGS [r12_38_TrROS_Hall]	3.94 ± 0.13 kcal/mol
SAGGSAGGGRAEILVEPVEPEPRARVVIRLEGSGRLVVFPVEEPLEPEHVEEAVEAAIKALEENSAGGSAGG [r6_330_TrMRF]	0.647 ± 0.013 kcal/mol
SAGGSEFIPVVAEFPEDVTPEDVARAVRELERAGFVVERVEVERFPDPDGRERYRVRVVLRRPEELSAGGSA [r2_442_TrMRF]	3.841 ± 0.0097 kcal/mol
SAGSVEVSVSGNEIHITAPEGISLEELIELIKKLFPGADIGEVSVEKLPDGRYVATFKAGFKPPSPDELSAG [r5_110_TrMRF]	4.29 ± 0.14 kcal/mol
SAGGMGSEKLPLTLTLPGDRKLEVTVYRVGDKLYVEIKLTHGSKPLGTLTVEADSLDEVLDAAKEAASAGGS [r16_55_TrMRF]	3.58 ± 0.062 kcal/mol
SAGGSAGGSAGGPKTVRIVEYDPETQRVVIELEDGSKVVIEVPPGMSVEELKGKTLTVEPSAGGSAGGSAGG [r7_296_TrROS_Hall]	0.569 ± 0.1 kcal/mol
SAGGSAGGKSYVRLEVYRRNPETDEWEKIRTEVLETDAASGEEVRRRALERVPEDYLVKVELFPSAGGSAGG [r6_623_TrMRF]	2.872 ± 0.028 kcal/mol
SAGGSSVLINHTKTFSSEEEAEKEAEELKEKAKKEGFDEVKVEISKDPSGGTYTLKVTIKKKLPPDLKSAGG [r19_92_JUSTAS]	3.21 ± 0.072 kcal/mol
SMKSKIEVKTVTFTFSPDDPLAKTPLEEIISEKAKKEGKKIEIPSYSYTSTDPAKGTKTYTFTVKIIKEESA [r9_107_JUSTAS]	0.797 ± 0.21 kcal/mol
SAGGSAGGSAPPNDWYVGIMEITININIDADQLPPPLREKFEKNGIKEIRITFVSVFPPDDFSAGGSAGGSA [r18_127_TrROS]	3.56 ± 0.11 kcal/mol
SAKKAEEIAEKVEKTIKEAAKEKGYDVNIKVKATKGKDGKVTVYIDFDSPENAKEFIEKLPKSVNVVIASAG [r14_491_TrMRF]	1.42 ± 0.059 kcal/mol
SAGAVELPPGVAAVERDPETGVVTATYPDGTVTRYTVSTEWDPTVGRTRPRVTVEVWSPDSRISTRDLPSAG [r5_109_JUSTAS]	0.799 ± 0.13 kcal/mol
SAGGSAGGKKKVIEITVKITLFNENGEEVATFEAKITIIEDKETKEYYAVITFKDGSTLVIKLPSAGGSAGG [r6_923_TrROS_Hall]	5.12 ± 0.2 kcal/mol
SAGGSAGGSAPGKSITITFLFIWPDGWILVMKITFDPDGPGDIDIEWQWIPIPPPEPPPEDPSAGGSAGGSA [r18_409_TrROS]	5.37 ± 0.32 kcal/mol
SAVTLLSTEFVPEEGVVRLLFERPAPPDTTTFTFSVSVNGYPIESISLSVDPATNTATATATAKVPPGLSAG [r14_244_JUSTAS]	4.1 ± 0.11 kcal/mol
SAGGSAGKIEIPLPELGEVREEPVPDTVRIEVRFPDGRVLEATVLKDDTIEIREKGTGKLVATLPASAGGSA [r15_656_TrMRF]	1.39 ± 0.043 kcal/mol
SAMPKPALTIEIPLPNGQTVRIDVYYDPETGTYTVNVTRTLPNGEPFTRTYTVESPEEAIKNIEVTDFGSAG [r14_749_TrMRF]	3.18 ± 0.078 kcal/mol
SAGGSASMGVSVAAIAEALDAARPAGAPPLVYVKLPNGEVVRVSPDESLTSISPEGEVEIEIRFLPSAGGSA [r15_50_JUSTAS]	0.81 ± 0.022 kcal/mol
SAGGMELEKAIEFAKETGKEVEIEIEVEDENGKPFVIRVRVKVKPDPEDPNKYKIEVEVEVFPKEELSAGGS [r16_323_TrMRF]	4.38 ± 0.13 kcal/mol
SIRGMPPEVVLYIIRFFAREQKNKGMPPDDRPIEINIMMPNPEARKDAKKEIKEENPGIKDVKIEVMPPNSA [r9_341_TrROS]	3.1 ± 0.17 kcal/mol

assay: folding stability dG unfold (combined trypsin and chymotrypsin); higher = more stable
Procedure, shortened: as §1

Sequence	folding stability dG unfold
SAGGSAGGSAGGGSPIPTTTLTTVTYGSSSSLLSSAKGPSSVPYSLPSSLGSSVSTTVVGSAGGSAGGSAGG [r7_141_JUSTAS]	-0.34 ± 0.38 kcal/mol
SAGGSASVSDVTTTTVTVTVEVTEDPATGLQRLTATHPDLSFERLVPAGTIPADTTVTLDVTVTTGSAGGSA [r15_190_JUSTAS]	0.322 ± 0.046 kcal/mol
SAGGSAGGSAGMTVPTSVEVSPDGTVRVRQLRWVRHGDGWRPFTFTVTLPISDDALKALKSAGGSAGGSAGG [r17_415_TrMRF]	1.12 ± 0.038 kcal/mol
SAGSIEIYIIYPPEDPDQPPTEEEIRSIARSLARQLGLPPKDFPIDVEWRRIDPEDGIYVYEITIEFPSAGG [r19_244_TrROS]	3.27 ± 0.1 kcal/mol
SAGGSAGGSAKKVIKAKILEVKVLPDGTGLVKLEGEDGLEVVIPLSILENISPDAIVTIEASAGGSAGGSAG [r3_315_TrMRF]	1.45 ± 0.066 kcal/mol
SMKVTLDGKGSVTTMPAEQLEVLIKELKEKGYKVKILSEEPDPNSDTVNYTIEITPPKPEKEEFENEELKSA [r9_448_JUSTAS]	1.59 ± 0.12 kcal/mol
SAGGSAGGSAGMVKLRFEVKFKIKLLGEGETNEVVEVDVKVEFEVTLPPFKVRPDGSLLESAGGSAGGSAGG [r11_558_TrMRF]	4.03 ± 0.21 kcal/mol
GEFVSVESVERLPDGTLVVKIKYKPPSPDTPVTVTVSHPDSSVTFTMDPTSSTITVTVPPSVSDVSVTVVGS [r1_428_JUSTAS]	3.29 ± 0.093 kcal/mol
SAGGSAGGSAGGSKKYKAKIVSVEYDEETKEVTIKVKLENGEEKTITMSLEELKEIELPSAGGSAGGSAGGS [r4_51_TrROS_Hall]	2.77 ± 0.079 kcal/mol
SAGPWRIKEVDPDSYTIEIRFGDRPIEIKIPPGKEPSIMIEMDPDGHFQLTIRVPDRTRTFTIPFDDIRSAG [r5_500_TrROS]	0.674 ± 0.19 kcal/mol
SAGGSAGGSAEKPPPPVVTLRVRVVVEVDGKLYVATAEVRLVDGKLEIRVRIEEVPPGAPVSAGGSAGGSAG [r3_49_TrROS_Hall]	4.34 ± 0.17 kcal/mol
SAGGSAGGSAMEITITVPKENEEEVLEAAKKALEELGIEEVKVEKLEDGTYKVTARVKPGLSAGGSAGGSAG [r3_335_TrROS_Hall]	0.361 ± 0.2 kcal/mol
SAGGSAGGSGNATVMLMFPIEISITVMEWDNGKPKMKTQEIEIWVMIMIPVPPPPDPGDPEWNSAGGSAGGS [r12_713_TrROS]	3.76 ± 0.11 kcal/mol
SAGTIVFSRDELKELGIPEDMTVEEIKQKILDRLKEEGYEVKITKIEVVEVDEEEGRVLVRITIEVKKPSAG [r5_23_TrROS_Hall]	4.17 ± 0.13 kcal/mol
SAGGSAGGMTPEEERRKKESPVPPVNKVTVKIPVPSSVSEEVAKEIAEKLEKESGAKKVEVILPSAGGSAGG [r6_517_JUSTAS]	1 ± 0.091 kcal/mol
SAGGSAGGEELAKRLKELFPNAKIVEIKYDKKTKKVTIKVELEPGMSEEQRERLRKLLEELLKKSAGGSAGG [r6_97_TrROS_Hall]	3.07 ± 0.15 kcal/mol
SAGMYLVKITVTNEDGEKKEITVLVEAETEEEAREAAEELARELAEKYPEKIVEVKVEVVKLPPEVEPSAGG [r19_335_TrROS_Hall]	4.98 ± 0.66 kcal/mol
SAGMKPGEVLTVEDIPPGALLRNPKGESLGPVVEVEVRALEDSVEAVVTFPDGSKATVTFPADDIVLDPSAG [r5_850_TrMRF]	0.987 ± 0.33 kcal/mol
SAGGMKIEVRPLPGDGFVVRLPGDVVALIDPSTGEAVAFFPDGSVARLTITRDPDRPEFTITIEPVGSAGGS [r8_186_TrMRF]	1.83 ± 0.069 kcal/mol
SAPVIEITEVTFNPDGSVEVTLVIPFPDDPEIPPEEIAKAIKEAFGFEEVTVEPIPETGAWRITLRAPGSAG [r14_228_TrMRF]	4.07 ± 0.12 kcal/mol
SAMANITANYYDPETGKVLAKDLPLPNGDEVHVTPNPVTGTVTVEWDGPEEALEVIKAALPPDWKIYPLSAG [r14_252_TrMRF]	0.362 ± 0.18 kcal/mol

Sequence	folding stability dG unfold
SAGGGMNEKVIEIEVTVTAPDGKVTTNPTTVVSNSLEEVKASIKASIPPNWSITVTVLKTKSLKEVLSSAGG [r13_513_JUSTAS]	0.659 ± 0.095 kcal/mol
SAGGSAGGSKKPKITITIEILVKNEDGKLYLFRIEIEINENGEISIKMEIFELKDIKPGDILLSAGGSAGGS [r12_38_TrROS_Hall]	3.56 ± 0.38 kcal/mol
SAGGSAGGGRAEILVEPVEPEPRARVVIRLEGSGRLVVFPVEEPLEPEHVEEAVEAAIKALEENSAGGSAGG [r6_330_TrMRF]	0.393 ± 0.065 kcal/mol
SAGGSEFIPVVAEFPEDVTPEDVARAVRELERAGFVVERVEVERFPDPDGRERYRVRVVLRRPEELSAGGSA [r2_442_TrMRF]	3.732 ± 0.035 kcal/mol
SAGSVEVSVSGNEIHITAPEGISLEELIELIKKLFPGADIGEVSVEKLPDGRYVATFKAGFKPPSPDELSAG [r5_110_TrMRF]	4.34 ± 0.12 kcal/mol
SAGGMGSEKLPLTLTLPGDRKLEVTVYRVGDKLYVEIKLTHGSKPLGTLTVEADSLDEVLDAAKEAASAGGS [r16_55_TrMRF]	3.28 ± 0.15 kcal/mol
SAGGSAGGSAGGPKTVRIVEYDPETQRVVIELEDGSKVVIEVPPGMSVEELKGKTLTVEPSAGGSAGGSAGG [r7_296_TrROS_Hall]	1.14 ± 0.17 kcal/mol
SAGGSAGGKSYVRLEVYRRNPETDEWEKIRTEVLETDAASGEEVRRRALERVPEDYLVKVELFPSAGGSAGG [r6_623_TrMRF]	2.62 ± 0.062 kcal/mol
SAGGSSVLINHTKTFSSEEEAEKEAEELKEKAKKEGFDEVKVEISKDPSGGTYTLKVTIKKKLPPDLKSAGG [r19_92_JUSTAS]	2.87 ± 0.26 kcal/mol
SMKSKIEVKTVTFTFSPDDPLAKTPLEEIISEKAKKEGKKIEIPSYSYTSTDPAKGTKTYTFTVKIIKEESA [r9_107_JUSTAS]	0.534 ± 0.14 kcal/mol
SAGGSAGGSAPPNDWYVGIMEITININIDADQLPPPLREKFEKNGIKEIRITFVSVFPPDDFSAGGSAGGSA [r18_127_TrROS]	3.14 ± 0.19 kcal/mol
SAKKAEEIAEKVEKTIKEAAKEKGYDVNIKVKATKGKDGKVTVYIDFDSPENAKEFIEKLPKSVNVVIASAG [r14_491_TrMRF]	1.41 ± 0.11 kcal/mol
SAGAVELPPGVAAVERDPETGVVTATYPDGTVTRYTVSTEWDPTVGRTRPRVTVEVWSPDSRISTRDLPSAG [r5_109_JUSTAS]	0.527 ± 0.12 kcal/mol
SAGGSAGGKKKVIEITVKITLFNENGEEVATFEAKITIIEDKETKEYYAVITFKDGSTLVIKLPSAGGSAGG [r6_923_TrROS_Hall]	4.87 ± 0.47 kcal/mol
SAGGSAGGSAPGKSITITFLFIWPDGWILVMKITFDPDGPGDIDIEWQWIPIPPPEPPPEDPSAGGSAGGSA [r18_409_TrROS]	5.16 ± 0.46 kcal/mol
SAVTLLSTEFVPEEGVVRLLFERPAPPDTTTFTFSVSVNGYPIESISLSVDPATNTATATATAKVPPGLSAG [r14_244_JUSTAS]	3.2 ± 0.22 kcal/mol
SAGGSAGKIEIPLPELGEVREEPVPDTVRIEVRFPDGRVLEATVLKDDTIEIREKGTGKLVATLPASAGGSA [r15_656_TrMRF]	1.44 ± 0.12 kcal/mol
SAMPKPALTIEIPLPNGQTVRIDVYYDPETGTYTVNVTRTLPNGEPFTRTYTVESPEEAIKNIEVTDFGSAG [r14_749_TrMRF]	3.24 ± 0.12 kcal/mol
SAGGSASMGVSVAAIAEALDAARPAGAPPLVYVKLPNGEVVRVSPDESLTSISPEGEVEIEIRFLPSAGGSA [r15_50_JUSTAS]	0.878 ± 0.04 kcal/mol
SAGGMELEKAIEFAKETGKEVEIEIEVEDENGKPFVIRVRVKVKPDPEDPNKYKIEVEVEVFPKEELSAGGS [r16_323_TrMRF]	4.08 ± 0.12 kcal/mol
SIRGMPPEVVLYIIRFFAREQKNKGMPPDDRPIEINIMMPNPEARKDAKKEIKEENPGIKDVKIEVMPPNSA [r9_341_TrROS]	2.61 ± 0.56 kcal/mol
